# Experimental data: PMC7352286, “The Heterooligomerization of Human Small Heat Shock Proteins Is Controlled by Conserved Motif Located in the N-Terminal Domain” (International Journal of Molecular Sciences, 2020)
# Positions count from the first letter of the chain named.
# T1: wild-type human small heat shock protein HspB6 (human, UniProt O14558 1-160)
# T1 construct: HspB6, human, UniProt O14558; WT cDNA in pET22b or pET23a, parent of the full-size mutants; No tag is named; also called WT HspB6; source: E. coli BL21(DE3) pLysS, purified (ammonium sulfate, HiTrap Phenyl-Sepharose, Superdex 200)
# T1 sequence (looked up): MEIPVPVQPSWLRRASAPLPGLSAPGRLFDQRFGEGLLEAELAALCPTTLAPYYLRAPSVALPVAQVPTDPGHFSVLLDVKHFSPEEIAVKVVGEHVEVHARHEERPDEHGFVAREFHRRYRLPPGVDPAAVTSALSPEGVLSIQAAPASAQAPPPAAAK
# T2: wild-type human small heat shock protein HspB6 (human), O14558
# T2 chain: T1 sequence (looked up)
# B1: wild-type human small heat shock protein HspB5 (natural protein, UniProt P02511 1-175, looked up)
# chain: MDIAIHHPWIRRPFFPFHSPSRLFDQFFGEHLLESDLFPTSTSLSPFYLRPPSFLRAPSWFDTGLSEMRLEKDRFSVNLDVKHFSPEELKVKVLGDVIEVHGKHEERQDEHGFISREFHRKYRIPADVDPLTITSSLSSDGVLTVNGPRKQVSGPERTIPITREEKPAVTAAPKK
# notes: WT cDNA in pET22b or pET23a, parent of the full-size mutants; No tag is named; Forms large homooligomers; also called WT HspB5; source: E. coli BL21(DE3) pLysS, purified (ammonium sulfate, HiTrap Q, Superdex 200)
# B2: HspB5 R22A (natural protein, human, UniProt P02511 1-175, looked up)
# chain: B1 chain with R22A
# notes: also called R/A HspB5; R/A mutant of HspB5; source: E. coli BL21(DE3) pLysS, purified (ammonium sulfate, HiTrap Q, Superdex 200)
# B3: wild-type human small heat shock protein HspB6, O14558 1-160 (natural protein)
# chain: T1 sequence (looked up)
# B4: HspB6 R27A (natural protein, human, UniProt O14558 1-160, looked up)
# chain: T1 sequence (looked up) with R27A
# notes: also called R/A HspB6; R/A mutant of HspB6; source: E. coli BL21(DE3) pLysS, purified (ammonium sulfate, HiTrap Phenyl-Sepharose, Superdex 200)
# B5: HspB6 Δ26–30 (natural protein, human, UniProt O14558 1-160, looked up)
# chain: MEIPVPVQPSWLRRASAPLPGLSAPQRFGEGLLEAELAALCPTTLAPYYLRAPSVALPVAQVPTDPGHFSVLLDVKHFSPEEIAVKVVGEHVEVHARHEERPDEHGFVAREFHRRYRLPPGVDPAAVTSALSPEGVLSIQAAPASAQAPPPAAAK
# notes: also called Δ HspB6; Δ mutant of HspB6; source: E. coli BL21(DE3) pLysS, purified (ammonium sulfate, HiTrap Phenyl-Sepharose, Superdex 200)
# B6: HspB5 Δ21–25 (natural protein, human, UniProt P02511 1-175, looked up)
# chain: MDIAIHHPWIRRPFFPFHSPQFFGEHLLESDLFPTSTSLSPFYLRPPSFLRAPSWFDTGLSEMRLEKDRFSVNLDVKHFSPEELKVKVLGDVIEVHGKHEERQDEHGFISREFHRKYRIPADVDPLTITSSLSSDGVLTVNGPRKQVSGPERTIPITREEKPAVTAAPKK
# notes: also called Δ HspB5; Δ mutant of HspB5; source: E. coli BL21(DE3) pLysS, purified (ammonium sulfate, HiTrap Q, Superdex 200)
# Legend:
# [1] = target: the molecule itself; assay: SEC; isolated protein on Superdex 200 HR 10/30 in buffer B; apparent molecular weight against standards
# HspB6 R27A = target: B4; assay: SEC; equimolar mixture (30–40 µM each), reduced, preincubated 1 h at 42 °C in buffer B (20 mM Tris-acetate, 150 mM NaCl, 0.1 mM EDTA, 15 mM mercaptoethanol); Superdex 200 HR 10/30; fractions on SDS gels; correlation coefficient and molar ratio from band intensities; conditions: both partners purified
# [2] = target: T1, wild-type human small heat shock …; assay: as above; conditions: both partners purified
# HspB6 Δ26–30 = target: B5; assay: as above; conditions: both partners purified
# [3] = target: T2, wild-type human small heat shock …; assay: SEC; isolated protein on Superdex 200 HR 10/30 in buffer B; apparent molecular weight against standards; conditions: remark: other sources report otherwise
correlation coefficient [2],Binder,binding result [1],further results
0.99,B1,binds,correlation coefficient (HspB6 R27A): 0.99; stoichiometry N [2]: ~2 HspB5/HspB6 molar ratio; correlation coefficient (HspB6 Δ26–30): 0.98
0.99,B2,binds,–
–,B3,–,stoichiometry N [3]: 2
–,B4,binds,–
–,B5,binds,–
0.98,B6,binds,–
